Measured values as given in patent publication US20080025990A1 (Eli Lilly, published 2008).
Values joined by “and” are separate entries in the source; they are usually repeats but may differ in a detail not shown here. Identical values can stand only once. Values belong to the binder of their own block, whether it stands above or below them.

Experiments:
[1] = target: T1, native human IGF-IR on human tumor cells (human, UniProt P08069 31-1367); assay: cell-based or functional assay
[2] = target: T1, native human IGF-IR on human tumor cells; assay: cell-based or functional assay; remark: listed apart in the source
[3] = target: recombinant extracellular portion of human IGF-IR (soluble IGF-IR) (human) (UniProt P08069); assay: comparison of affinities (BIAcore, Table 3)
[4] = target: T1, native human IGF-IR on human tumor cells; assay: cell-based or functional assay; remark: listed apart in the source
[5] = target: T1, native human IGF-IR on human tumor cells; assay: inhibition of 125I-IGF-I binding to MCF7 (breast) cells
Protocol: (§1) The anti-IGF-IR antibodies were then tested for blocking of radiolabeled ligand to native IGF-IR on human tumor cells. […] MCF7 human breast cancer cells were seeded into 24 well dishes, and cultured overnight. Sub-confluent monolayers were washed 2-3 times in binding buffer (Iscove's Medium/0.1% BSA) and antibody added in binding buffer. […] The wells were then washed three times with ice-cold PBS/0.1% BSA. Monolayers were then lysed with 200 μl 0.5N NaOH and counted in a gamma counter.

[6] = target: T1, native human IGF-IR on human tumor cells; assay: inhibition of 125I-IGF-I binding to T47D (breast) cells
[7] = target: T1, native human IGF-IR on human tumor cells; assay: inhibition of 125I-IGF-I binding to 8226 (myeloma) cells
[8] = target: T1, native human IGF-IR on human tumor cells; assay: inhibition of 125I-IGF-I binding to OV90 (ovarian) cells
[9] = target: T1, native human IGF-IR on human tumor cells; assay: inhibition of 125I-IGF-I binding to HPAC (pancreatic) cells
[10] = target: T1, native human IGF-IR on human tumor cells; assay: inhibition of 125I-IGF-I binding to BXPC3 (pancreatic) cells
[11] = target: T1, native human IGF-IR on human tumor cells; assay: inhibition of 125I-IGF-I binding to HT-29 (colorectal) cells
[12] = target: recombinant extracellular portion of human IGF-IR (soluble IGF-IR) (human) (UniProt P08069); assay: inhibition of 125I-IGF-I binding to immobilized IGF-IR, A12 against 2F8
[13] = target: T1, native human IGF-IR on human tumor cells; assay: inhibition of 125I-IGF-I binding to SK-ES1 (Ewing sarcoma) cells
[14] = target: T1, native human IGF-IR on human tumor cells; assay: inhibition of 125I-IGF-I binding to MCF7 cells (the 3 nM is written at Table 4)
Protocol: as §1

[15] = target: recombinant extracellular portion of human IGF-IR (soluble IGF-IR) (human) (UniProt P08069); assay: inhibition of 125I-IGF-I binding to immobilized human IGF-IR, full IgG; 'Blocking (EC50)'
[16] = target: recombinant extracellular portion of human IGF-IR (soluble IGF-IR) (human) (UniProt P08069); assay: human IGF-IR ELISA, full IgG; column head 'Binding (ED50)', concentration for 50% binding relative to saturation
[17] = target: recombinant extracellular portion of human IGF-IR (soluble IGF-IR) (human) (UniProt P08069); assay: BIAcore binding kinetic analysis
[18] = target: T1, native human IGF-IR on human tumor cells; assay: inhibition of 125I-IGF-I binding to MCF7 cells
Protocol: as §1

[19] = target: recombinant extracellular portion of human IGF-IR (soluble IGF-IR) (human) (UniProt P08069); assay: BIAcore 3000, soluble IGF-IR immobilized on the chip, full IgG
[20] = target: recombinant extracellular portion of human IGF-IR (soluble IGF-IR) (human) (UniProt P08069); assay: inhibition of 125I-IGF-I binding to immobilized human IGF-IR, full IgG; 'Blocking (EC50)'; lower end of the printed range 3-6 nM
[21] = target: recombinant extracellular portion of human IGF-IR (soluble IGF-IR) (human) (UniProt P08069); assay: inhibition of 125I-IGF-I binding to immobilized human IGF-IR, full IgG; 'Blocking (EC50)'; upper end of the printed range 3-6 nM

reduction in IGF-IR surface staining of MCF7 cells after 4 h with 50 nM A12 at 37 C (FACS, mean fluorescence intensity ratio) [1]: 90% | IC50 of inhibition of IGF-I-stimulated [3H]thymidine incorporation (mitogenesis), MCF7 breast [2]: 6 nM | IC50 of inhibition of mitogenesis, 8226 myeloma [2]: 5 nM | IC50 of inhibition of mitogenesis, BT474 breast [2]: 5 nM | IC50 of inhibition of mitogenesis, BXPC3 pancreatic [2]: 2 nM | IC50 of inhibition of mitogenesis, HT-29 colorectal [2]: 6 nM | IC50 of inhibition of mitogenesis, SK-ES1 Ewing sarcoma [2]: 10 nM | IC50 of inhibition of mitogenesis, T47D breast [2]: 7 nM | fold higher affinity relative to 2F8 [3]: 10 fold | surface IGF-IR staining of MCF7 cells (mean fluorescence intensity ratio) after 4 hours with A12; untreated cells 35.7, control 1 [4]: 3.3 | IC50 [5]: 3 nM | IC50 [6]: 6 nM | IC50 [7]: 20 nM | IC50 [8]: 6 nM | IC50 [9]: 10 nM | IC50 [10]: 20 nM | IC50 [11]: 10 nM | fold increase in blocking activity relative to 2F8 [12]: > 3 fold | IC50 [13]: 2 nM | IC50 [14]: 0.45 µg/mL | IC50 [15]: 0.6 to 1 nM | EC50 [16]: 0.3 nM
B1: antibody A12, full length human IgG1 with lambda light chain (antibody, V domains shown)
VH: EVQLVQSGAEVKKPGSSVKVSCKASGGTFSSYAISWVRQAPGQGLEWMGGIIPIFGTANYAQKFQGRVTITADKSTSTAYMELSSLRSEDTAVYYCARAPLRFLEWSTQDHYYYYYMDVWGKGTTVTVSS
VL: SSELTQDPAVSVALGQTVRITCQGDSLRSYYATWYQQKPGQAPILVIYGENKRPSGIPDRFSGSSSGNTASLTITGAQAEDEADYYCKSRDGSGQHLVFGGGTKLTVLG
notes: also called IMC-A12; mAb A12

Kd [17]: 0.5 to 1 nM | IC50 [18]: 30 nM and 4.5 µg/mL | Kd [19]: 0.65 nM | EC50 [16]: 2 nM | IC50 [20]: > 3 nM | IC50 [21]: < 6 nM
B2: antibody 2F8, full length human IgG1 with lambda light chain (antibody, V domains shown)
VH: EVQLVQSGAEVKKPGSSVKVSCKASGGTFSSYAISWVRQAPGQGLEWMGGIIPIFGTANYAQKFQGRVTITADKSTSTAYMELSSLRSEDTAVYYCARAPLRFLEWSTQDHYYYYYMDVWGKGTTVTVSS
VL: SSELTQDPAVSVALGQTVRITCQGDSLRSYYASWYQQKPGQAPVLVIYGKNNRPSGIPDRFSGSSSGNTASLTITGAQAEDEADYYCNSRDNSDNRLIFGGGTKLTVLS
notes: Tested as full IgG1 (human gamma 1 constant region) with full-length lambda light chain; also called IMC-2F8; 2F8 IgG
